Holding throughout (format): functional, cell-based
What all share (conditions): Oocyte

Substrate in data set [1]: N[C@@H](Cc1ccc(Oc2cc(I)c(O)c(I)c2)c(I)c1)C(=O)O
Nature of the data set: (§1) TP_TRANSPORTER: uptake in Xenopus laevis oocytes.

Substrate in data set [2]: N[C@@H](Cc1cc(I)c(Oc2cc(I)c(O)c(I)c2)c(I)c1)C(=O)O
The data set is described as §1.

Substrate in data set [3]: NC(Cc1ccc(Oc2cc(I)c(O)c(I)c2)c(I)c1)C(=O)O
The description is as §1.

B1: Monocarboxylate transporter 8 (Rattus norvegicus), Q8K1P8 (protein)
chain: MALPSPASEEAEGPCQEANQEYQEPVCSPVPEPEPEPEPEPEPEPEPVPVPPPEPQPEPEPQPLPDPAPLPVLGFEAEPVQEPEPTPTVETRGTARGFQPPEGGFGWIVVFAATWCNGSIFGIHNSVGILYSMLLEEEKEKNRQVEFQAAWVGALAMGMIFFCSPIVSIFTDRLGCRITATTGAAVAFIGLHTSSFTSSLSLRYFTYGILFGCGCSFAFQPSLVILGHYFQRRLGLANGVVSAGSSIFSMSFPFLIKMLGDRIKLAQTFQVLSTFMFVLTLLSLTYRPLLPSSQDTPSKRGAHTLRQRFLVQFRKYFNMRVFRQRTYRIWAFGIAAAALGYFVPYVHLMKYVEDKFKEIKETWVLLVCIGATSGLGRLVSGHISDSIPGLKKIYLQVLSFLLLGLMSMMIPLCRDFGGLIVVCLFLGLCDGFFITIMAPIAFELVGPMQASQAIGYLLGMMALPMIAGPPIAGLLRNCFGNYHVAFYFAGVPPIIGAVILFFVPLMHQRMFKKEQRESSKDKMLSHDPDPNGELLPGSPTPEEPI
With B1, the Km in data set [1] came out at 4 µM; in data set [2], 4.7 µM; in data set [3] it was 2.2 µM.

A word on the Km: it is the concentration of substrate that gives half-maximal velocity.

The values are drawn from ChEMBL document CHEMBL2074163, “Identification of monocarboxylate transporter 8 as a specific thyroid hormone transporter” (J Biol Chem, 2003).
